Measurements taken from the nanobody polyreactivity screen of Harvey et al. (2022).

test: yeast display, Sf9 membrane polyspecificity reagent, FACS + sequencing; frameworks hold sequencing errors
In short: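 A nanobody's polyreactivity label depends on the gate it was sorted from. Yeast display cells were stained with 10% biotinylated, detergent-solubilized Sf9 membrane reagent for 1 hour at 4 °C, enriched on streptavidin microbeads and sorted by FACS. The low and high (top ~1%) gates were set on anti-HA fluorescence for expression and streptavidin fluorescence for reagent binding.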

Sequence	polyreactivity (PSR sort gate)
QVQLVESGGGLVQAGGSLRLSCAASGRTLVRYAMGWYRQAPGKEREFVAGISYSGGSTYYADSVKGRFTISRDNAKNTVYLQMNSLKPEDTAVYYCAATTRGARKSGGNYWGQGTQVTVSS	high polyreactivity
QLQLEESCGGLVQAGGSLRLSCAATGFIFGKYAMGWYRQAPGKQREFVAAITRSGGSTYYADSVKGRVTISRDNAKNTVFLQMFCLKPEDTAVYYCNARISERGWRYYYWGHGTQVTVSS	high polyreactivity
QVQLVESGGGLVQAGGSLRLSCAASGSTLDYNAMGWYRQAPGKEREFVADITWSGGSTHYADSVKGRFTISRDNSKNTVYLQMNSLKPEDTAVYYCATAYYYHGGYYYPYDDYWGQGTQVTVSS	low polyreactivity
QVQLVESGGGLVQAGGSLRLSCAASGFTFDENAMGWYRQAPGINYSGASTYYADSVMGRFTFSRDNAKNTVYLQMNSLKPEDTAVYYCAAEVVAQMNYWGQGTQVTVSS	low polyreactivity
QVQLVESGGGLVQAGGSLRLSCAASGGTFSYYAMGWYRQARGKERELDAAISGNGDTTYYADSVKGRFTISRDNAKNTVYLQMNSLKPEDTAVYYCAADGWGFIVGIDYYPYGEGDYWGQGTQVTVSS	low polyreactivity
QVQLVESGGGLVQAGVSLRLSCAASGFISDWYAMGWYRQAPGNERELVATLDWIGGSTYADSVKGRFTISRDNAKNTVYFQMNSLKPEDTAVYYCAADSFFIAWYGAHYAYDDWGQGTQVTVSS	low polyreactivity
QVQLVESGGGLVQAGGSLRLSCAASGFIFDYYAMGWYRHAPGKERELVAAITSRGGSTYYADSVKGRFTISRDNAKNTVYLQMNSLKPEDTAVYYCAARRRSAEYNYWGQGTQVTVSS	high polyreactivity
QVQLVESGGGLVQAGGSLRLSCAASGFTFDRNAMGWYRQAPGKERELVATISQSGTNTYYADSVKGRFTISRDNAKNTVYLQMNSLKPEDTAVYYCNARYIFYRYDYWGQGTQVTVSS	low polyreactivity
QVQLVESGGGLVQAGGSLRLSCAASGYGYVMGWYRQAPGKERELVAAISRSGGSTYYADSVKGRFTISRDNAKNTVYFQMNSLIPEDTAVYDCAARWPGAYHDYGYWGQVTQVTVSS	high polyreactivity
QVQLVESGGGLVQAGGSLRLSCAASGRTFWYYAMGWYRQAPGKEREFVAAISWSGGSTYYADSVKGRFTISRDNAKNTVYLQMNSLKPEDTAVYYCAADRYDSSQFYYWGQGTQVTVSS	low polyreactivity
QVQLEESGGGLVQAGGSHRLSCAASGSIFGPNAMGWSRQAPGKERELVAAISWTGGRTYYADSVKGRFTISRDNAYNTVYLQMNSLKPEDTAVYDCAVKGHPCGQGTQVTVSS	low polyreactivity
QVQLVESGGGLVQAGGSLRLSCAASGRTFVTYAMGWYRQAPGKERELVAAISKRGSRTYYADSVKGRFTISRDNAKNTVYLQMNSLKPEDTAVYYCNAYPYRTSYDYWGQGTQVTVSS	high polyreactivity
QDQLVESGGGLVQAGGSLRLSCAASGSTFVRSVMGWYRQAPGKERELVAAISRRGGSTYYADSVKGRFTISRDNAKNTVYLQMNSQKPEDTAVYYCARTVGYRTLLESDSWGQGTQVTVAS	high polyreactivity
QVQLVESGGGLVQAGGSLRLSCAASGRIFYPYAMGWYRQAPGKERELVAAISSSGGSTYYADSVKGRFTISRDNAKNTVYLQMNSLKPEDTAVYYCNKYSYTYQNPYDSWGQGTQVTVSS	high polyreactivity
QVQLVESGGGLVQAGGSLRLSCAASGSIFLKYAMGWYRQAPGKERELVAAISSRGGSTYYADSVKGRFTISRDNAKNTVYLQMNSLKPEDTAVYYCAKVRQTYFGWYSTTRDYWGQGTQVTVSS	high polyreactivity
QVQLVESGGGLVQAGGSLRLSCAASGLTFEHNAMGWYRQAPGKETEFVAVISWRGTSTYYADSVKGRFTISRDNAKNTVYLQMNSLKPEDTAVYYCATRYYGDDGYRYDHWGQGTQVTVSS	high polyreactivity

Sequence	polyreactivity (PSR sort gate)
QVQLVESGGGLVQAGGSLRLSCAASGSIFFYYAMGWYRQAPGKERELVAAITLSDGRTYYADSVKGRFTISRDNAKNTVYLQMNSLKPEDTAVYYCNADTGWYPTGARWHHYDYWGQGTQVTVSS	high polyreactivity
QVQLVESGGGLVQAGGSLRLSCAASGRIFKLYAMGWYRQAPGKERELVATIRYSGGSTYYADSVKGRFTISRDNAKNSVYLHMNSLKPEDTAVYYCNYVSRRQYFEYDYWGQGTQVTVSS	low polyreactivity
QVQLQESGGGLVQAGGSLRLSCAASGPISRRSTMGWYRQAPGKERELVTAITRGTNTNYADSVKGRFTISRDNAKNTESLQMNSLKPEDTAVYYGAAYGVLKPSRGDAVFHRYWGQGTQVTVSS	low polyreactivity
QVHLVESGGGLVQAGGSLRLSCAASGLTFAYYAMGWYRQAPGKERELVAAITDSAGNTYYADSVKGRFTISRDNAKNTVYLQMNSLKQEDTAVYYCAAAWPSTGLLYVLGYSGYGYWGQGTQVTVSS	low polyreactivity
QVQLVESGGGLVQAGGSLRLSCAASGNIFDLYAMGWYRQAPGKERELVAAITRSSSRTYYADSVKGRFTISRDNAKNTVYLQMNSLKPEDTAVYYCRAKQVNRFDYWGQGTKVTVSS	high polyreactivity
QVQLVESGGGLVQAGGSLRLSCAASGFTFHNYAMGWYRQAPGKEREFVAAITRNTASTYYADSVKGRFTISRDNAKTTVYLQMISLKPEATAVYYCAATDKKHRTAYDSWGQRTQVTVSS	low polyreactivity
QVQLVESGGGLVQAGGSLRLSCAASGSTFPSYAMGGYRPAPGKERELVAAINRSGGSTYYADSVKGRFTISRDNAKNTVYLQMNSLKPEDTAVYYCATGLTTGGGYYWGQGTQVTVSS	high polyreactivity
QVQLLESGGGLVQAGGSLRLSCAASGSTFKSYAMGWYRQAPGKERELVAAISGRGGSTYYADSVKGRVTISRDNAKNTVYLQMNSLKPEDTAVYYCNALGSQRYDYWGQGTQVTVSS	high polyreactivity
QVQLVESGGGLVQAGGSLRLSCAASGLTFYYYAMGWYRQAPGKERELVAAISRSGGSTYYADSVKGRFTISRDNAKNTVYLQMNSLKPEDTAVYYCAADYFTLYPYRGYDYWGQGTQVTVSS	low polyreactivity
QVQLVESGGGLVQAGGSLRLSCAASGSTFGYNAMGWYRQAPGKERELVAAITWSGGSTYYADSVKGRFTISRDNAKNTVYLQMNSLKPEDTAAYYCAADDWYNSKWHYYYWGQGTQVTVSS	low polyreactivity
QVQLVESGGGLVQAGGSLRLSCAASGSIVTSYAIGWYRQAPGQERELVATITRRGGSTYYADSVKGRFTISRDNSKNTVYLQMNSLKPEDTAVSYCTARSSTIVYAGDYWGLGTQVTVSS	low polyreactivity
QVQLVESGGGLVQAGGSLRLSCAASGRIFSSYAMGWYRQAPGKERELVADITGRYGSTYYADSVKGRFTISRDNAKNTVYLQMNSLKPEDTAVYYCAASRFYFPRTFGGYPKLASYAYWGQVTQVTVSS	low polyreactivity
QVQLVESGGGLVQAGGSLRLSCAASGSTFIDYDMGWYRQAPGKERELVAAITSSGSTYYADSVKGRFTISRDNAKNTVYLQMNSLKPEDTAVYYCNARVGPELHDYWGQGTQVTVSS	low polyreactivity
QVQLVESGGCLVQAGGSLRLRCAASGSSFAYNDMGWDRQAPGKDRELVATIRNGGSTYYADSVKGRFTISRDNAKNTVYLQRNSLKPEDTAVYYCAAVPLWDYKFCYYLLYDYWGQGTQVNVSS	low polyreactivity
QVQLVESGGGLVQAGGSLRLSCAASGSTFSPNAMGWYRQAPGKERELVAAITYRGANTYYADSVKGRFTISRDNEKNTVYLQMNSLKPEDNAVYYCAAEYAYHHVGFGYWGQGTQVTVSS	low polyreactivity
QVQLVESGGGLVQAGGSLRLSCAASGFIFKFYTMGWYRQAPGKERELVAVISGSGGRTYYADSVKGRFTISRDNAKNTVYLQMNSLKPEDTAVYYCARYGPYQSSYHYDYWGQGTQVTVSS	high polyreactivity
